# Measurements: article PMC11063069
# Target: His-tagged human CD47 protein (human) (UniProt Q08722)
# Experiment: pull-down
# Chain of UniProt Q08722 (Q08722 19-139): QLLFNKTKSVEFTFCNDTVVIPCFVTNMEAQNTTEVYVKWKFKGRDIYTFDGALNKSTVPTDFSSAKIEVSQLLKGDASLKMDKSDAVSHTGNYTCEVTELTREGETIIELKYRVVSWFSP
substance,measurement,value
fibronectin-binding protein B (FnBP B) of S. aureus laboratory strain 8325-4 (from UniProt A0A0H2XKG3 37-940) (natural protein),percent of bacterial colonies precipitated in the pellets with recombinant hCD47,83.2%
